The IC50 is the midpoint of a concentration-inhibition curve. Read a low IC50 as greater potency in that assay. As a reminder, the Ki is the dissociation constant of the complex between target and ligand, obtained from inhibition or displacement. What is called Kd is the concentration at which binding is half-saturated. A high value points to a looser complex.

The target in experiment [1] is mouse-derived galanin receptor protein (mouse pancreatic β-cell line MIN6-derived, encoded by pMGR20) (mouse) (UniProt P56479). Description: competition with [125I] porcine galanin on MIN6 cell membrane fractions, 25 C 75 min, filtration.
The target is the same in experiment [2]. Description: competition with 100 pM porcine [125I] galanin on membranes of CHO cells expressing the mouse galanin receptor, 25 C 75 min.
Experiment [3] has the same target. The experiment in a line: competition with porcine [125I] galanin on membranes of CHO cells expressing the mouse galanin receptor.
Experiment [4] concerns the target T1, mouse-derived galanin receptor protein (mouse pancreatic β-cell line MIN6-derived, encoded by pMGR20) (mouse, UniProt P56479 1-348).
T1 construct: also called mouse galanin receptor; MIN6-derived galanin receptor protein
T1 sequence: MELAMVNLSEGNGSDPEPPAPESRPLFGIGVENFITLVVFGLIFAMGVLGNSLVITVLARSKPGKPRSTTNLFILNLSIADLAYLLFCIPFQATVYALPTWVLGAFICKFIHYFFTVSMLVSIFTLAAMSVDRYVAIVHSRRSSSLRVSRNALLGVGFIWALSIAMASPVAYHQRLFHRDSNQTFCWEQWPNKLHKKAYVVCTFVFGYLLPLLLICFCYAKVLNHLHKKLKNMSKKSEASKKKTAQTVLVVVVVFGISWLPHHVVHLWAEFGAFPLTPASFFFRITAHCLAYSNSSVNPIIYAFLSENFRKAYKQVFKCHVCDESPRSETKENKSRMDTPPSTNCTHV
The experiment is described as above. As to the method: (§1) Membrane fractions (1 μg of protein) were incubated with the ligands for 75 min at 25° C. […] Each symbol represents the mean value±S.E.M. of the triplicate assays.

Experiment [5] deals with T1, mouse-derived galanin receptor protein …. Description: competition with [125I] porcine galanin on MIN6 cell membrane fractions, 25 C 75 min, filtration. Here is the method:
The MIN6 cell membrane fractions prepared by the method of the above-mentioned (1) were diluted with a buffer for the receptor binding experiment (containing 20 mM of Tris, 1 mM of EDTA, 0.03% of NaN , 0.1% of BSA, 0.05% of CHAPS, 0.5 mM of PMSF, 10 μg/ml of pepstatin, 20 μg/ml of leupeptin and 4 μg/ml of E-64; pH: 7.4) to make the membrane protein concentration 50 μg/ml.
The mixture was allowed to stand in a water bath of 25° C. for 75 minutes to promote the receptor binding reaction. Thereafter, 1.5 ml of an ice-cooled buffer for the binding experiment was added to the reaction solution for quenching the binding reaction and filtered with a glass fiber filter (GF/F, manufactured by Whatman) immediately whereupon the membrane fractions were collected on the filter paper. Then the filter paper was washed with 1.5 ml of the same buffer and the amount of the radioisotope in the filter paper was determined by a gamma-ray detector.

The target is the same in experiment [6]. Description: saturation binding and Scatchard plot analysis on membrane fractions of CHO cells transformed with mouse galanin receptor cDNA, 25 C 75 min, filtration.
Excerpt: (§2) The results shown are from one representative experiment performed in triplicate assays.
as §2

Experiment [7] has the same target. The experiment in a line: competition with 100 pM porcine [125I] galanin on membranes of CHO cells expressing the mouse galanin receptor, 25 C 75 min. Here is the method: as §1

Where no end group is shown, it is not given here.

In turn, “galanin antagonist (galantide) (peptide)” returned an IC50 in experiment [1] of 0.69 nM. In experiment [2], “M15 (galanin receptor antagonist) (peptide)” showed an IC50 of 0.83 nM. Besides, the Ki in experiment [3] was determined as 0.23 nM.

B1: porcine galanin (unlabeled) (peptide, UniProt P07480 33-61, looked up)
peptide: GWTLNSAGYLLGPHAIDNHRSFHDKYGLA
modifications: ends and bridges not checked
notes: mature; The assay used the 29-residue peptide; also called standard porcine galanin; galanin (porcine)
In experiment [4], B1 displayed a Ki of 0.072 nM. In experiment [5], this molecule registered an IC50 of 0.12 nM.

B2: porcine [125I] galanin (peptide, UniProt P07480 33-61, looked up)
peptide: GWTLNSAGYLLGPHAIDNHRSFHDKYGLA
modifications: ends and bridges not checked; also: [125I] radioisotope label (residue not given here)
notes: mature; also called labeled galanin
Molecule B2 gave a Kd in experiment [6] of 0.045 nM.

B3: galanin (1-16) partial peptide (peptide)
peptide: GWTLNSAGYLLGPHAI
notes: The range 1-16 counts on the mature peptide, not on the precursor
B3 gave a Ki in experiment [4] of 1 nM. The IC50 in experiment [5] came out at 3.3 nM; in experiment [7], 3.6 nM.

B4: human galanin (unlabeled) (peptide, UniProt P22466 33-62, looked up)
peptide: GWTLNSAGYLLGPHAVGNHRSFSDKNGLTS
notes: mature; The assay used the galanin peptide
Regarding B4, in experiment [4], the affinity, expressed as Ki, was 0.12 nM. The same molecule returned an IC50 in experiment [7] of 0.43 nM.

The record behind these values is patent publication US20030008329A1 (Takeda / Millennium, published 2003).
